T1: human FAP recombinant protein (human, UniProt Q12884 26-760)
T1 construct: The protein was biotinylated with sulfo-NHS-SS-biotin for bio-layer interferometry; also called extracellular domain of human FAP with N-terminal His6-tag
T1 sequence: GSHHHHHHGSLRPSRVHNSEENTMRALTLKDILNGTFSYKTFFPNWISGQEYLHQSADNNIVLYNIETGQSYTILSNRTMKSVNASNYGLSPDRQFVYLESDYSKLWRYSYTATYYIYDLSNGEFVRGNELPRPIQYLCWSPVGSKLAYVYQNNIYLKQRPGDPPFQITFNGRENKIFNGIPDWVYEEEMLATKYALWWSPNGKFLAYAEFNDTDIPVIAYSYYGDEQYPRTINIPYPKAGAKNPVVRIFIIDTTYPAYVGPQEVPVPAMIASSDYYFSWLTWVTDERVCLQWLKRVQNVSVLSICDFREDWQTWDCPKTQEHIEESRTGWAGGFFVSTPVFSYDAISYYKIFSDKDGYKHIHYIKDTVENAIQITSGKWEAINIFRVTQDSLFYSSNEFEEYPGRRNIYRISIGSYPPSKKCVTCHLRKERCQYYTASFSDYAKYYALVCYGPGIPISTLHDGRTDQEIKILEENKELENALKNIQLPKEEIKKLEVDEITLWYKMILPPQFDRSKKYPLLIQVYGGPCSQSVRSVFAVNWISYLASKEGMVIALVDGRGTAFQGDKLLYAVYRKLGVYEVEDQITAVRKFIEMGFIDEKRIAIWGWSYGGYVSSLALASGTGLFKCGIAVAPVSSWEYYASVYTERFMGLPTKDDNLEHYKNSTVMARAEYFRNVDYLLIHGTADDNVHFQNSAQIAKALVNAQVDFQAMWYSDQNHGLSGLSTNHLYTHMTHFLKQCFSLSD

T2: murine FAP expressed on cells (murine, UniProt P97321 1-761)
T2 construct: also called murine FAP cell surface protein
T2 sequence: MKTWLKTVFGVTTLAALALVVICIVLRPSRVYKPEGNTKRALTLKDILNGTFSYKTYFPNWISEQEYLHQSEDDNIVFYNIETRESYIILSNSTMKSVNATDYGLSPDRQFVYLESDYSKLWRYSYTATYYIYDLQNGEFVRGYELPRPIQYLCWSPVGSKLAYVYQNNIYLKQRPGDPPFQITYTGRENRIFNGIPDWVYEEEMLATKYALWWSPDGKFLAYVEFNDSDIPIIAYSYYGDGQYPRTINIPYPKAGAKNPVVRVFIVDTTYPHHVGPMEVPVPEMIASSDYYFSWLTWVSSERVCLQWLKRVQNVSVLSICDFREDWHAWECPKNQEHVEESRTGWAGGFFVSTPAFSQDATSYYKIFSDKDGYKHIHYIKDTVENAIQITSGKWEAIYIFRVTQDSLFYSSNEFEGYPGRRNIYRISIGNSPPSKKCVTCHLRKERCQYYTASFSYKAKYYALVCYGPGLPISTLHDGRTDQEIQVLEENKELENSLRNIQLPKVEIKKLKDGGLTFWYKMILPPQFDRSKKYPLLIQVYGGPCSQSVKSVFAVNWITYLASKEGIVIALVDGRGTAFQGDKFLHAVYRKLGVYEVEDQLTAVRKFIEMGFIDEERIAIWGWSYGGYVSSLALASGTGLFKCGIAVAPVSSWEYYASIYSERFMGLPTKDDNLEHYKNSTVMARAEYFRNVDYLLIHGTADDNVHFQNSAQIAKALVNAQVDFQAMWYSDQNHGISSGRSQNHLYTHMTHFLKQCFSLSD

T3: human FAP expressed on cells (human, UniProt Q12884 1-760)
T3 construct: also called human FAP cell surface protein; human FAP receptor
T3 sequence: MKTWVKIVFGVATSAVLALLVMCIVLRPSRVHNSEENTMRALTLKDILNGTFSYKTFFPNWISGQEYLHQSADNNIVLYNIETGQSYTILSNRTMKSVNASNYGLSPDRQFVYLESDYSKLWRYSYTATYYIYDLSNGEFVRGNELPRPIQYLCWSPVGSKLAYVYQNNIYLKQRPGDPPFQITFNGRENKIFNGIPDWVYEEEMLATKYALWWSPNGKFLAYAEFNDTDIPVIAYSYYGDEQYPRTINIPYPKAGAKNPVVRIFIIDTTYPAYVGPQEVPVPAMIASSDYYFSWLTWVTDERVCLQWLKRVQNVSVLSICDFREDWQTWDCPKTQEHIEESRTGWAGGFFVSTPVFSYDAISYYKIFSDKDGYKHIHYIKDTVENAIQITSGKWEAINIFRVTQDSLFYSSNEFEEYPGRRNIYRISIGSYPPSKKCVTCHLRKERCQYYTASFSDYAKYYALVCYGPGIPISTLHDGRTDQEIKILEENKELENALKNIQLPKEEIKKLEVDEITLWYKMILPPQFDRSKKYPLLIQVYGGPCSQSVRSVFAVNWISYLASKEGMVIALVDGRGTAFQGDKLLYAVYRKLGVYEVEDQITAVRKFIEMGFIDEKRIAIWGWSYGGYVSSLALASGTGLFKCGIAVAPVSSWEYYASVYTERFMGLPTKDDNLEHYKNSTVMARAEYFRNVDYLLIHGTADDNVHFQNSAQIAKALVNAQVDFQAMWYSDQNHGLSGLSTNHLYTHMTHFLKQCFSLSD

T4: murine FAP recombinant protein (murine, UniProt P97321 26-761)
T4 construct: The protein was biotinylated for bio-layer interferometry; also called extracellular domain of murine FAP with N-terminal His6-tag
T4 sequence: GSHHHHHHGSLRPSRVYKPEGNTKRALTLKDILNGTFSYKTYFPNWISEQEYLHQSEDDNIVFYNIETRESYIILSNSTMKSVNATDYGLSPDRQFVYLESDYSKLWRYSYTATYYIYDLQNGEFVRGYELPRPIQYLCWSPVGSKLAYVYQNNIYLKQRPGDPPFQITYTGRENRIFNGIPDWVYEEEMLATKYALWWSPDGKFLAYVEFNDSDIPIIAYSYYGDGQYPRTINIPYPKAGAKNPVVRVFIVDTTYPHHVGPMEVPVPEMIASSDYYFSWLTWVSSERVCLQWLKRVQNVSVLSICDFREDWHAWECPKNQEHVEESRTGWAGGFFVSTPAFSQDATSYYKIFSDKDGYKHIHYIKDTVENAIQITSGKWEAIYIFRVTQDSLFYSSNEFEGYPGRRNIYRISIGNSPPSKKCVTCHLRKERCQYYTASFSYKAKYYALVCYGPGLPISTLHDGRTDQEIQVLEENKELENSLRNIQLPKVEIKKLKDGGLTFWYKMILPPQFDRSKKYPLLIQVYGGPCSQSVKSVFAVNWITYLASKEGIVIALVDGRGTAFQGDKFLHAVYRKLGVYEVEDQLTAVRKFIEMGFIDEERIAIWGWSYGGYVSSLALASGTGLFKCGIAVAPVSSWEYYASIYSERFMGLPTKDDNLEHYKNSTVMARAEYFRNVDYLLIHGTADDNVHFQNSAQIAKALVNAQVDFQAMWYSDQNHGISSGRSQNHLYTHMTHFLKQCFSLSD


Key:
[1] = biological target: T1, human FAP recombinant protein; test: ELISA, coated human FAP recombinant protein, HA-His6-tagged VHH extract, anti-HA detection
Method: (§1) The day before measurement, 0.1 μg recombinant protein at a concentration of 1 μg/mL in 100 mM NaHCO₃, pH 8.2 was coated in a 96-well ELISA plate (Nunc MaxiSorp). Per VHH clone also a blank coated well was foreseen (only buffer). The wells were overcoated with protein-free T20 (PBS) blocking buffer (Pierce). After washing with PBS, pH7.4, 0.05% Tween, VHH-containing bacterial freeze-thaw extract was added to every well. Binding of HA-His₆-tagged VHHs was detected by using mouse anti-HA.11 epitope tag (clone 16B12, Biolegend) as the primary Ab and goat anti-mouse IgG (whole molecule) alkaline phosphatase conjugate (Sigma-Aldrich) as the secondary Ab, with thorough washing with PBS, pH 7.4, 0.05% Tween in between. Signals were developed using phosphatase substrate (Sigma-Aldrich) in AP blot buffer (100 mM NaCl, 50 mM MgCl₂, 100 mM Tris, pH 9.5). The absorbance was determined at 405 nm using an absorbance microplate reader (Molecular Devices). Per clone the ratio was determined between the absorbance in the antigen-coated well versus the well without antigen.

[2] = biological target: T5, human DPP IV recombinant protein (human, UniProt P27487 29-766); test: ELISA, coated human DPP IV, HA-His6-tagged VHH extract, anti-HA detection
T5 construct: extracellular domain; Bought protein; also called Dipeptidyl amino-peptidase IV
T5 sequence (P27487 29-766): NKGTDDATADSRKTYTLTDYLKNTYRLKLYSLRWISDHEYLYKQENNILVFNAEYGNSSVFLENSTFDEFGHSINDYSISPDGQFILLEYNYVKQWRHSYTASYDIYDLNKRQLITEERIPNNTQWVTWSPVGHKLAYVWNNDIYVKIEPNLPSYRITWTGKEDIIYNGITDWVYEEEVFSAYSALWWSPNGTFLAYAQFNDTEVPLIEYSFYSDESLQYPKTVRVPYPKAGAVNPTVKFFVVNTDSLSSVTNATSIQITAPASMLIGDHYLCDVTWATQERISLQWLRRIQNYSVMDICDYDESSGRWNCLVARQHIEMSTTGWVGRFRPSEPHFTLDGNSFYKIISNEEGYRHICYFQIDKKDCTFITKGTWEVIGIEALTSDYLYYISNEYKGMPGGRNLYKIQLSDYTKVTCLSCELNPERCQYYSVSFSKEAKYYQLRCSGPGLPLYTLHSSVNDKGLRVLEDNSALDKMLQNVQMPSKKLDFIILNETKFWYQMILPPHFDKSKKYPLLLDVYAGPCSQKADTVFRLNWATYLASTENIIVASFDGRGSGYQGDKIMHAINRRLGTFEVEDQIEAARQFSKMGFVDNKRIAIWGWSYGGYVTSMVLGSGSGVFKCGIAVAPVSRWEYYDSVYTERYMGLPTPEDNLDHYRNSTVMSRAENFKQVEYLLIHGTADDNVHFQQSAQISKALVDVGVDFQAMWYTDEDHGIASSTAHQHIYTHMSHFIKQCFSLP
Method: as §1

[3] = biological target: T5, human DPP IV recombinant protein; test: ELISA on coated recombinant protein, VHH-containing bacterial extract, anti-HA detection, signal-to-background ratio
Method: as §1

[4] = biological target: T2, murine FAP expressed on cells; test: saturation binding of 99mTc-labelled VHH on murine FAP-expressing HEK-293 cells (mean ± SD, n = 3)
Method: (§2) Next, we describe the in vitro and in vivo human and murine FAP binding potential of different VHHs after radiolabelling with the diagnostic radioisotope ^99mTc. […] His₆-tagged human/murine FAP-targeting VHHs were radiolabelled with the diagnostic radioisotope ^99mTc, according to the radiochemical procedure described in Example 3.
(§3) Next, the different cell lines were incubated with serial dilutions with concentrations ranging from 0 to 300 nM of the different ^99mTc-labelled His₆-tagged VHHs. A 100-fold excess of the corresponding unlabeled VHH was added in parallel to saturate the human or murine FAP proteins on the cancer cell surface, to assess non-specific binding. The resulting EC50 values for each of the VHHs are depicted in Table 8. […] We confirmed that ^99mTc-labeled VHH B4 only binds murine FAP cell surface protein, while VHH B3 only binds human FAP cell surface molecules in vitro.

[5] = biological target: T3, human FAP expressed on cells; test: saturation binding of 99mTc-labelled VHH on human FAP-expressing HEK-293 cells (mean ± SD, n = 3)
Method: as §2, §3

[6] = biological target: T3, human FAP expressed on cells; test: saturation binding of 99mTc-labelled VHH on human FAP-expressing GM05389 cells (mean ± SD, n = 3)
Method: as §2, §3

[7] = biological target: T4, murine FAP recombinant protein; test: bio-layer interferometry (Octet RED96), biotinylated murine FAP on streptavidin sensor, kinetic titration, 25 °C
Method: (§4) The kinetic parameters of antigen binding by purified VHHs were determined via bio-layer interferometry with an Octet RED96 instrument (ForteBio). The assay was performed at 25° C. with shaking at 1000 rpm. Streptavidin coated SA sensors were equilibrated in assay buffer (HBS supplemented with 0.5% BSA, 0.1% Tween), before loading for 5 min with the biotinylated FAP recombinant protein at a concentration of 5 μg/ml. His₆-tagged VHHs were analyzed in a threefold serial dilution from 30 nM to 0.4 nM in assay buffer (except for VHH B3 binding murine FAP recombinant protein, for which a fivefold serial dilution from 1000 nM to 1.6 nM was employed). First the baseline was measured for 180 s in assay buffer, followed by 5 subsequent association phases of 180 s with the VHH preparations in increasing order of concentration, with 75 s intermediate dissociation phases in assay buffer in between, and a final dissociation phase in assay buffer of 30 min. In every assay a reference sensor loaded with FAP recombinant protein was included that was incubated in assay buffer during the association phases.
(§5) Binding curves were exported and analyzed using the BIAevaluation analysis software (GE Healthcare). First the y-axes of the different curves were aligned to the median of the last 5 s of the baseline measurement. Subsequently, the sensorgram of the reference sensor was subtracted from all other sensorgrams. The resulting binding curve was fitted using a general fit with the ‘kinetic titration with drift’ binding model (1:1 (antigen:analyte) model; Karlsson, R. et al (2006), Analyzing a kinetic titration series using affinity biosensors. Analytical Biochemistry 349: 136-147), with Rmax fitted global, RI local and drift set to 0.
(§6) Table 7 gives an overview of the kinetic parameters of antigen binding for His₆-tagged VHHs B1, B2, B3 and B4 (SEQ ID NO: 21-24), as determined by bio-layer interferometry with biotinylated human or murine FAP recombinant protein that was loaded on the sensor.

[8] = biological target: T1, human FAP recombinant protein; test: bio-layer interferometry (Octet RED96), biotinylated human FAP on streptavidin sensor, kinetic titration, 25 °C
Method: as §4, §5, §6

| EC50 [4] [nM] | EC50 [5] [nM] | EC50 [6] [nM] | Kd [7] [nM] | koff [7] [s⁻¹] | kon [7] [M⁻¹ s⁻¹] | Binder | also measured |
| --- | --- | --- | --- | --- | --- | --- | --- |
| – | – | – | – | – | – | HA-His6-tagged VHH B1 (VHH, Used as bacterial freeze-thaw extract in ELISA and flow cytometry, and at 1 µM in the enzyme assay; also called B1 with HA-His6-tag) VHH: QVQLQESGGGLVQPGGSLRLSCVASGRLSSSNSMAWYRQVPGKRRELVAGITGGGETNYADFVGGRFTISRDNAKNGLYLQLNGLKPEDTAAYYCNFWPPLINYWGQGTQVTVSS | signal-to-background ratio [1]: > 25; signal-to-background ratio [2]: ~1; binding result [3]: no binding |
| 5.8 | 0.6 | 0.5 | – | – | – | 99mTc-labeled His6-tagged VHH B1 (VHH, [99mTc(H2O)3(CO)3] complexed at the His6-tag, also called 99mTc-B1) VHH: DVQLVESGGGLVQPGGSLRLSCVASGRLSSSNSMAWYRQVPGKRRELVAGITGGGETNYADFVGGRFTISRDNAKNGLYLQLNGLKPEDTAAYYCNFWPPLINYWGQGTQVTVSS | – |
| – | – | – | 0.512 | 0.00056 | 1.1e+06 | His6-tagged VHH B4 (VHH, Purified, unlabelled; used in bio-layer interferometry; also called B4 with His6-tag) VHH: DVQLVESGGGLVQVGGSLRLSCVASGFTFSSYYMSWVRQAPGKGLEWVASIYADGDMTYYADSVRGRFTISRDNAKNTLYLQMNSLKSEDTAVYYCAKDPLPPYHVNQGTQVTVSS | – |
| – | – | – | 24.3 | 0.0082 | 340000 | His6-tagged VHH B2 (VHH, Purified, unlabelled; used in bio-layer interferometry; also called B2 with His6-tag) VHH: DVQLVESGGGLVQAGGSLRLSCAVSGSISSANSMGWYRQAPGKQRDVVAGLTTGGRSHYADSVKGRFTISRDNAKNTVYLQMNSLKAEDTAVYYCNLWPPVQGYWGQGTQVTVSS | Kd [8]: 0.0744 nM; koff [8]: 3.1e-05 s⁻¹; kon [8]: 420000 M⁻¹ s⁻¹ |
| 139 | 13 | 3.2 | – | – | – | 99mTc-labeled His6-tagged VHH B2 (VHH, [99mTc(H2O)3(CO)3] complexed at the His6-tag, also called 99mTc-B2) VHH: DVQLVESGGGLVQAGGSLRLSCAVSGSISSANSMGWYRQAPGKQRDVVAGLTTGGRSHYADSVKGRFTISRDNAKNTVYLQMNSLKAEDTAVYYCNLWPPVQGYWGQGTQVTVSS | – |
